Experimental data: patent US20210395344A1 (TWIST BIOSCIENCE, published 2021)
Read-outs that look alike come from different tables or passages of the source.

Legend:
human ACE2 = human ACE2 (human, UniProt Q9BYF1 18-740)
[1] = target: T1, COVID S1 RBD Fc fusion (Antigen 1) (SARS-CoV-2, UniProt P0DTC2 319-541); experiment: phage ELISA
T1 construct: domain: RBD

S1-Fc [2] = target: T2, S1-Fc (SARS-CoV-2, UniProt P0DTC2 16-685); experiment: phage ELISA
[3] = target: T3, COVID S1 RBM Fc fusion (Antigen 2) (SARS-CoV-2, UniProt P0DTC2 437-508); experiment: phage ELISA
T3 construct: domain: RBM

[4] = target: T1, COVID S1 RBD Fc fusion (Antigen 1); experiment: phage ELISA; remark: listed apart in the source
S1-Fc [5] = target: T2, S1-Fc; experiment: phage ELISA; remark: listed apart in the source
[6] = target: T3, COVID S1 RBM Fc fusion (Antigen 2); experiment: phage ELISA; remark: listed apart in the source
[7] = target: T4, SARS-CoV-2 S1 (antigen of the Carterra SPR kinetics) (SARS-CoV-2, UniProt P0DTC2 16-685); experiment: Carterra SPR
[8] = target: T4, SARS-CoV-2 S1 (antigen of the Carterra …); experiment: Carterra SPR; remark: listed apart in the source
[9] = target: T5, SARS-CoV-2 Spike Glycoprotein S1 (subunit 1) (SARS-CoV-2, UniProt P0DTC2 16-685); experiment: ELISA binding titration
T5 construct: also called S1 Monomer; SARS-CoV-2 S1

[10] = target: T5, SARS-CoV-2 Spike Glycoprotein S1 …; experiment: screening phage ELISA, mean
[11] = target: T5, SARS-CoV-2 Spike Glycoprotein S1 …; experiment: screening phage ELISA, mean; remark: listed apart in the source
[12] = target: T5, SARS-CoV-2 Spike Glycoprotein S1 …; experiment: column DC/S1 (format not explained)
[13] = target: T5, SARS-CoV-2 Spike Glycoprotein S1 …; experiment: column Fc/S1 (format not explained)
[14] = target: T5, SARS-CoV-2 Spike Glycoprotein S1 …; experiment: column Inhibitor IC50 (assay not explained)

Chain of human ACE2 (Q9BYF1 18-740 limits assumed): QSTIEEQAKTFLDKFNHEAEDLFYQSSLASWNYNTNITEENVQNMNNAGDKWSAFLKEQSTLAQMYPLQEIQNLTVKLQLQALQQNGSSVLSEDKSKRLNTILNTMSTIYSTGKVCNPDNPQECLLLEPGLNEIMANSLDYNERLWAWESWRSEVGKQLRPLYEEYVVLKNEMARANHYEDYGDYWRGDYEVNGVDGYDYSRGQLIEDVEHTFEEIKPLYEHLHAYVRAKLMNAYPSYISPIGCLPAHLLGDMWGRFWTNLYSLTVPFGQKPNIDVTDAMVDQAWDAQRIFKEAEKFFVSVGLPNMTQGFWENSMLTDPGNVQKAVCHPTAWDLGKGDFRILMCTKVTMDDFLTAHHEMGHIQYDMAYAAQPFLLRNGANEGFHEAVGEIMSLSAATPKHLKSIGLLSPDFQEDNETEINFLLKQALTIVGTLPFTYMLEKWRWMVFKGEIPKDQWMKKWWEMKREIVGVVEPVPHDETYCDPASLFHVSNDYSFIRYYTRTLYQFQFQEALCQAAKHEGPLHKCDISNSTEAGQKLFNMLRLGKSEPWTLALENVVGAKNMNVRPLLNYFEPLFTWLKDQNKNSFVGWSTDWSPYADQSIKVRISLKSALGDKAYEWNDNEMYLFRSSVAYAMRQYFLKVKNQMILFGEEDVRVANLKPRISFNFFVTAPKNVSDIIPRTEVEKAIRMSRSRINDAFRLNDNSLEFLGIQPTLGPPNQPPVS

Row | Binder | IC50 (human ACE2) [nM] | ELISA fold over background [1] [fold over background] | ELISA fold over background (S1-Fc [2]) [fold over background] | ELISA fold over background [3] [fold over background] | ELISA fold over background [4] [fold over background] | ELISA fold over background (S1-Fc [5]) [fold over background] | ELISA fold over background [6] [fold over background] | kon [7] [M⁻¹ s⁻¹] | Kd [8] [nM] | kon [8] [M⁻¹ s⁻¹] | koff [7] [s⁻¹] | koff [8] [s⁻¹] | EC50 [9] [nM] | ELISA (Avg) [10] | ELISA (Avg) [11] | Kd [12] [nM] | Kd [13] [nM] | IC50 [14] [nM]
1 | 4-139 (antibody, V domains shown) VH: EVQLVESGGGLVQPGGSLRLSCAASGGGTFGSYAMGWFRQAPGKEREFVAAISIASGASGGTTNYADSVKGRFTISADNSKNTAYLQMNSLKPEDTAVYYCATTMNPNPRWGQGTLVTVSS | 20.2 | – | – | – | – | – | – | – | – | – | – | – | – | – | – | – | – | –
2 | 4-119 (antibody, V domains shown) VH: EVQLVESGGGLVQPGGSLRLSCAASGFAFSSYAMGWFRQAPGKEREWVATINGDDYTYYADSVKGRFTISADNSKNTAYLQMNSLKPEDTAVYYCVATPGGYGLWGQGTLVTVSS | 4.37 | – | – | – | – | – | – | – | – | – | – | – | – | – | – | – | – | –
3 | 1-17 (antibody, V domains shown, also called variant 1-17) VH: EVQLLESGGGLVQPGGSLRLSCAASGFTFSSYAMYWVRQAPGKGLEWVSAISGSAGSTYYADSVKGRFTISRDNSKNTLYLQMNSLRAEDTAVYYCARDTNDFWSGYSIFDPWGQGTLVTVSS VL: QSALTQPASVSGSPGQSITISCTGTSSDIGSYNLVSWYQQHPGKAPKLMIYEGTKRPSGVSNRFSGSKSGNTASLTISGLQAEDEADYYCCSYAGSRTYVFGGGTKLTVL | – | 20.1 | 1.6 | 1.3 | 20.1 | 1.6 | 1.3 | 3.92e+08 | 67.1 | 3.92e+08 | – | – | – | – | – | – | – | –
4 | 1-42 (antibody, V domains shown, also called variant 1-42) VH: EVQLLESGGGLVQPGGSLRLSCAASGVTFSSYAMSWVRQAPGKGLEWVSAITGSGGSTYYADSVKGRFTISRDNSKNTLYLQMNSLRAEDTAVYYCAKHGSGTIFGVVIAKYYFDYWGQGTLVTVSS VL: QSALTQPASVSGSPGQSITISCTGTSSDVGRYNLVSWYQQHPGKAPKLMIYEGGKRPSGVSNRFSGSKSGNTASLTISGLQAEDEADYYCCSYASSSTLVFGGGTKLTVL | – | 20.8 | 1.4 | 1 | 20.8 | 1.4 | 1 | 9.1e+08 | 113 | 9.1e+08 | – | – | – | – | – | – | – | –
5 | 4-124 (antibody, V domains shown) VH: EVQLVESGGGLVQPGGSLRLSCAASGNIFTRNVMGWFRQAPGKEREFVAAITSSGSTNYADSVKGRFTISADNSKNTAYLQMNSLKPEDTAVYYCARPSSDLQGGVDYWGQGTLVTVSS | 54.4 | – | – | – | – | – | – | – | – | – | – | – | – | – | – | – | – | –
6 | 4-147 (antibody, V domains shown) VH: EVQLVESGGGLVQPGGSLRLSCAASGGTFSVYAMGWFRQAPGKEREGVAAISMSGDDAAYADSVKGRFTISADNSKNTAYLQMNSLKPEDTAVYYCAKISKDDGGKPRGAFFDSWGQGTLVTVSS | 68.3 | – | – | – | – | – | – | – | – | – | – | – | – | – | – | – | – | –
7 | 1-23 (antibody, V domains shown, also called variant 1-23) VH: EVQLLESGGGLVQPGGSLRLSCAASGFTFSSYAISWVRQAPGKGLEWVSIISGSGGSTYYADSVKGRFTISRDNSKNTLYLQMNSLRAEDTAVYYCAREGYRDYLWYFDLWGQGTLVTVSS VL: QSALTQPASVSGSPGQSITISCTGTSNDVGSYNLVSWYQQHPGKAPKLMIYEGNKRPSGVSNRFSGSKSGNTASLTISGLQAEDEADYYCCSYAGSYTVFGGGTKLTVL | – | 3.6 | 1.6 | 1.6 | 3.6 | 1.6 | 1.6 | 506000 | 315 | 506000 | 0.159 | 0.159 | – | – | – | – | – | –
8 | 1-24 (antibody, V domains shown, also called variant 1-24) VH: EVQLLESGGGLVQPGGSLRLSCAASGFTFSSYAMNWVRQAPGKGLEWVSIISGSGGSTYYADSVKGRFTISRDNSKNTLYLQMNSLRAEDTAVYYCAREGYRDYLWYFDLWGQGTLVTVSS VL: QSALTQPASVSGSPGQSITISCTGTSSDVGYYNLVSWYQQHPGKAPKLMIYEGNKRPSGVSNRFSGSKSGNTASLTISGLQAEDEADYYCCSYAGGSVVFGGGTKLTVL | – | 11 | 1.1 | 1.3 | 11 | 1.1 | 1.3 | 1.94e+08 | 75.5 | 1.94e+08 | – | – | – | – | – | – | – | –
9 | 1-47 (antibody, V domains shown, also called variant 1-47) VH: EVQLLESGGGLVQPGGSLRLSCAASGFTFSSQAMSWVRQAPGKGLEWVSAISGSGGGTYYADSVKGRFTISRDNSKNTLYLQMNSLRAEDTAVYYCAKDRRFGEFDPWGQGTLVTVSS VL: QSALTQPASVSGSPGQSITISCTGTSSGVGSYNLVSWYQQHPGKAPKLMIYEGIKRPSGVSNRFSGSKSGNTASLTISGLQAEDEADYYCCSYAGSSSFVVFGGGTKLTVL | – | 5.5 | 1.2 | 0.9 | 5.5 | 1.2 | 0.9 | 6320 | 38000 | 6320 | 0.24 | 0.24 | – | – | – | – | – | –
10 | 1-10 (antibody, V domains shown, also called variant 1-10) VH: EVQLLESGGGLVQPGGSLRLSCAASGFTFSSYDMSWVRQAPGKGLEWVSVISGSGGSTYYADSVKGRFTISRDNSKNTLYLQMNSLRAEDTAVYYCAKGPLVGWYFDLWGQGTLVTVSS VL: QSALTQPASVSGSPGQSITISCTGTSSNVGSYNLVSWYQQHPGKAPKLMIYEGTKRPSGVSNRFSGSKSGNTASLTISGLQAEDEADYYCCSYAGSSSFVVFGGGTKLTVL | – | 17.4 | 1.3 | 1.1 | 17.4 | 1.3 | 1.1 | 1.04e+06 | 142 | 1.04e+06 | 0.147 | 0.147 | – | – | – | – | – | –
11 | 1-4 (antibody, V domains shown) VH: EVQLLESGGGLVQPGGSLRLSCAASGFTFSSQAMSWVRQAPGKGLEWVSAISGSGGGTYYADSVKGRFTISRDNSKNTLYLQMNSLRAEDTAVYYCAKDRRFGEFDPWGQGTLVTVSS VL: QSALTQPASVSGSPGQSITISCTGTSSDVGTYNLVSWYQQHPGKAPKLMIYEGSQRPSGVSNRFSGSKSGNTASLTISGLQAEDEADYYCCSYAGSSSFVVFGGGTKLTVL | – | – | – | – | – | – | – | – | – | – | – | – | 2.56 | 20.6 | 20.6 | 659 | 25.5 | –
12 | 1-31 (antibody, V domains shown) VH: EVQLLESGGGLVQPGGSLRLSCAASGFTFSSYAMNWVRQAPGKGLEWVSAISGSGGSTFYADSVKGRFTISRDNSKNTLYLQMNSLRAEDTAVYYCTRPPYGDYGDYWGQGTLVTVSS VL: QSALTQPASVSGSPGQSITISCTGTSSDVGKYNLVSWYQQHPGKAPKLMIYEGSQRPSGVSNRFSGSKSGNTASLTISGLQAEDEADYYCCSYAGSRTPVVFGGGTKLTVL | – | – | – | – | – | – | – | – | – | – | – | – | 0.203 | 20.7 | 20.7 | 14.4 | 17.5 | 9.2
13 | 1-7 (antibody, V domains shown, also called variant 1-7) VH: EVQLLESGGGLVQPGGSLRLSCAASGFTFSSYDMSWVRQAPGKGLEWVSVISGSGGSTYYADSVKGRFTISRDNSKNTLYLQMNSLRAEDTAVYYCAKGPLVGWYFDLWGQGTLVTVSS VL: QSALTQPASVSGSPGQSITISCTGTSSDFGSYNLVSWYQQHPGKAPKLMIYEGNKRPSGVSNRFSGSKSGNTASLTISGLQAEDEADYYCCSYAGSSTFVVFGGGTKLTVL | – | 3.3 | 1.7 | 1.6 | 3.3 | 1.7 | 1.6 | 1.34e+06 | 127 | 1.34e+06 | 0.17 | 0.17 | – | – | – | – | – | –
14 | 1-28 (antibody, V domains shown) VH: EVQLLESGGGLVQPGGSLRLSCAASGFTFSSYGMSWVRQAPGKGLEWVSAISGSGGGTYYADSVKGRFTISRDNSKNTLYLQMNSLRAEDTAVYYCASSSSWQFDYWGQGTLVTVSS VL: QSALTQPASVSGSPGQSITISCTGTSSGVGSYNLVSWYQQHPGKAPKLMIYEGSQRPSGVSNRFSGSKSGNTASLTISGLQAEDEADYYCCSYAGSSTHYVFGGGTKLTVL | – | – | – | – | – | – | – | – | – | – | – | – | 2.28 | 17.7 | 17.7 | 520 | 3240 | –
